Measurements from article PMC179894.

How the values were obtained:
Assay in all cases: enzyme inhibition kinetics
plasmin = plasmin (UniProt P00747)
[1] = target: single-chain tissue-type plasminogen activator
thrombin = thrombin (UniProt P00734)

Chain of wild type plasminogen activator inhibitor-1 (recombinant, baculovirus system) (P05121 24-402): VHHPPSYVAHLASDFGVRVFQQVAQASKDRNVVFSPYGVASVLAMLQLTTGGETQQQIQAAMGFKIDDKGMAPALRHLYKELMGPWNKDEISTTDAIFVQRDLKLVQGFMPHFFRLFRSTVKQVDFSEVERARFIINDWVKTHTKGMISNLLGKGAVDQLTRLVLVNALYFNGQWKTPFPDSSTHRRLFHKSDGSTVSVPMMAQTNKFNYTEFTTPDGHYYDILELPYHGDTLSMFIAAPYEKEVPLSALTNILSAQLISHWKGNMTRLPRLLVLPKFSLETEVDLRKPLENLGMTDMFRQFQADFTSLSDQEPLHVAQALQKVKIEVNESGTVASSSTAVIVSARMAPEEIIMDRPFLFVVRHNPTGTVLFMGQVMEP

Substance: wild type plasminogen activator inhibitor-1 (recombinant, baculovirus system) (from UniProt P05121 24-402) (natural protein)
- second-order rate constant of inhibition (plasmin): 31000 M⁻¹ s⁻¹
- second-order rate constant of inhibition [1]: 2.11e+07 M⁻¹ s⁻¹
- second-order rate constant of inhibition (thrombin): 720 M⁻¹ s⁻¹
